Reference: the RNAGym collection of RNA variant scans (doi:10.1073/pnas.2313332121)

B1: TPR t1 (parent)
chain: GACCAAUCUGCCCUCAGAGCUCGAGAACAUCUUCGGAUGCAGAGGAGGCAGGCUUCGGUGGCGCGAUAGCGCCAACGUCCUCAACCUCCAAUGCAUCCCACCACAUGAUGAUGCCUGAAGAGCCUUGGUUUUUUG

Variants of: B1
Experiment: polymerase ribozyme fitness, log enrichment relative to wild type (log ratio); higher = more active; in vitro selection for triplet polymerase activity
Outline: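 Streptavidin-bead capture of gel-excised extended constructs, followed by RT-PCR, closed a single triplicate in vitro selection round. That round began by annealing PCR-built, transcribed mutant libraries of each subunit of a heterodimeric triplet polymerase ribozyme with a biotinylated primer, the partner subunit and triplets, then incubating them frozen at −7 °C. After Illumina sequencing of inputs and outputs, genotypes needed ≥10 input reads and ≥1 read per output. Fitness is the base-2 logarithm of genotype enrichment over wild-type enrichment, using inverse-variance-weighted replicate averages.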

| Variant | polymerase ribozyme fitness (log ratio) |
| --- | --- |
| GACCAAUCUUCCCUCAGAGCUCGAGAACAUCUUCGGAUGCAGAGGAGGCAGGCUUCGGUGGCGCGAUAGCGCCAACGUCCUCAACCUCCAAUGCAUCCCACCACAUGAUGAUUCCUGAAGAGCCUUGGUUUUUUG [G10U G113U] | -2.76 |
| GACCAAUCUUCCCUCAGAGCUCGAGAACAUCUUCGGAUGCAGAGGAGUCAGGCUUCGGUGGCGCGAUAGCGCCAACGUCCUCAACCUCCAAUACAUCCCACCACAUGAUGAUGCCUGAAGAGGCUUGGUUUUUUG [G10U G48U G93A C123G] | 0.384 |
| GACCAAUCUUCCCUCAAAGCUCGAGAACAUCUUCGGAUGCAGAGGAGGCAGGCUUCGGUGGCGCGAUAGCGCCAACGUCCUCAACCUCCAAUGCAUCCCACCACAUGAUGAUGCCUGAAGAGCCUUGGUUUUUUG [G10U G17A] | -3.07 |
| GACCAAUCUUCCCUCAGAGCUCGAGAACAUCUUCGGAUGCAGAGGAGGCAGGCUUCGGUGGCGCGAUAACGCCAACGUCCUCAACCUCCAAUGCAUCCCACCACAUGAUGAUGCCUGAAGAGCCUUGGUUUUUUG [G10U G69A] | -3.09 |
| GACCAAUCUUCCCUCAGAGCUCGAGAACAUCUUCGGAUGCAGAGGAGGCAGGCUUCAGUAGCGCGAUAGCGCCAACGUCCUCAACCUCCAAUGCAUCCCACCACAUGAUGAUGCCUGAAGAGCCUUGGUUUUUUG [G10U G57A G60A] | -0.571 |
| GACCAAUCUUCCCUCAGAGCUCGAGAACAUCUUCGGAUGCAGAGGAGGCAGGCUUCGGUGGCGCGAUAGCGCCAACGUCCUGAAUCUCCAAUGCAUCCCACCACAUGAUGAUGCCUGAACAGCCUUGGUUUUUUG [G10U C82G C85U G120C] | 0.866 |
| GACCAAUCUUCCCUCAGAGCUCGAGAACAUCUUCGGAUGCAGAGGAGGCAGGCUUCGGUGGCGCGAUAGCCCCAACGUCCUCAACCUCCAAUGCAUCCCACCACAUGAUGAUGCCUGAAGAGCCUUGGUUUUUUG [G10U G71C] | -1.29 |
| GACCAAUCUUCCCUCAAAGCUCGAGAACAUCUUCGGAUGCAGAGGAGGCAGGCUUAGGUGGCGCGAUAGCGCCAACGUCCUCAACCUCGAAUGCAUCCCACCACAUGAUGAUGCCUAAAGAGCCUUGGUUUUUUG [G10U G17A C56A C89G G117A] | -3.05 |
| GACCAAUCUUCCCUCAGACCUCGAGAACAUCUUCGGUUGCAGAGGAGGCAGGCUUCGGUGGCGCGAUAGCGAUAACGUCCUCAACCUCCAAUGCAUCCCACCACAUGAUGAUGCCUGAAGAGGCUUGGUCUUUUG [G10U G19C A37U C72A C73U C123G U130C] | -2.79 |
| GACCAAUCUUCCCUCAGAGCUCGAGAACAUCUUCGGAUGCAGAGGAGGCAGACUUCGGUGGCGCGAUAGCGCCAACGUGCUCAACCUCCAAUGCAUCCCACCACAUGAUGAUGCCUGAUGAGCCUUGGUUUUUUG [G10U G52A C79G A119U] | -0.109 |
| GACCAAUCUUCCCGCAGAGCUCGAGAACAUCUUCGGAUGCAGAGGAGGCAGGCUUCGGUGGCGCGAUAGCGCCAACGUCCUCAACCUCCAAUGCAUCCCACCACAUGAUGAUGCCCGAAGAGCCUUGGUUUUUUG [G10U U14G U116C] | -1.69 |
| GACCAAUCUUCCCUCAGAGCUCGAGAACAUCUUCGGAUGCAGAGGAGGCAGGCUUCGGUGGCGCGAUAGCGCCAACGUCCUCAACCUCCAAUGUAUCCCAACAAAUGAUGAUGCCUGAAGAGCCUUGGUUUUUUG [G10U C94U C101A C104A] | -3.21 |
| GACCAAUCUUCCCUCAGAGCUCGAGAACAUCUUCGGAUGCAGAGGAGGCAGGCUUCGGUGGCACGAUAGCGCCAACGUCCUCAACCUCCAAUGCAUCCCACCACAUGAUGAAGCCUGAAGAGCCUUGGUUUUUUG [G10U G63A U112A] | -0.981 |
| GACCAAUCUUCCCUCAGAGCUCGAGAACAUCUUCGGAUGCAGAGGAGGCAGGCUUCGGUGGCGCGAUAGCACCAACGUCCUCAACCUCCAAUGCAUCCCACCUCAUGAUGAUGUCUGAAGAGCCUUGGUUUUUUG [G10U G71A A103U C114U] | -4.96 |
| GACCAAUCUUCCCUCAGAGCUCGAGAACAUCUUCGGAUGCAGAGGAGGCAGGCUUCGGUGGCGCGAUAGCGCCAAAGUCCUCAACCUCCAAUGCAUCCCACCACAUGAUGAUGCCUGAAGAGCCUUGGUUUUUUG [G10U C76A] | -1.51 |
| GACCAAUCUUCCCUCAGAGCUCGAGAACAUCUUCGAAUGCAGAGGAGGCAGGCUUCGGUGCCGCGAUAGCGCCAACGUCCUCAACCUCCAAUGCAUCCCACCACAUGAUGAUGCCUGAAGAGCCUUGGUUUUUUG [G10U G36A G61C] | -3.3 |
| GACCAAUCUUCCCUCAGAGCUCGAGAACAUCUUCGGAUGCAGAGGAGGCAGGCUUCGGUGGCGCGAUAGCGCCAACGUCCUCAACCUCCAAUGCAUCCCACCACAUGAUAAUGCCUGAAGAGCCUUGGUUUUUUG [G10U G110A] | -1.35 |
| GACCAAUCUUCCCUCAGAGCUCGAGAACAUCUUCGGAUGCAGAGGAGGCAGGCUUCGGUGGCGCGAUAGCGCCAACGUCCUGAACCUCCAAUGCAUCCCACCACAUGAUGAUGCCUCAAGAGCCUUGGUUUUUUG [G10U C82G G117C] | -4.93 |
| GACCAAUCUUCCCUCAGAGCUCGAGAACAUCUUCGGAUACAGAGGAGGCAGGCUUCGGUGGCGCGAUAGCGCCAACGUCCUCAACCUCCAAUGCAUCUCACCACAUGAUGAUGCCUGAAGAGCCUUGGUUUUUUG [G10U G39A C98U] | -1.4 |
| GACCAAUCUUCCCUCAGAGCACGAGAACAUCUUCGGAUGCAGAGGAGGCAGGCUUCGGUUGCGCGAUAGCACCAACGUCCUCAACCUCUAAUGCAUCCCAUCACAUGAUGAUGCCUGAAGAGCAUUGGUUUUUUG [G10U U21A G60U G71A C89U C101U C124A] | -6.77 |
| GACCAAUCUUCCCUCAGAGCUCGAGAACAUCUUCGAAUGCAGAGGAGGCAGGCUUCGGUGGCGGGAUAGCGCCAACGUCCUCGACCUCCAAUGGAUCCCACCACAUGAUUAUGCCUGAAGAGCCUUGGUUUUUUG [G10U G36A C64G A83G C94G G110U] | -7.24 |
